Measured values as given in the supplement of paper PMC10065799, “High-throughput profiling of sequence recognition by tyrosine kinases and SH2 domains using bacterial peptide display” (eLife, 2023).

Assays:
AncSZ = experiment: phosphorylation enrichment, bacterial display (enrichment ratio); higher = better substrate or ligand; peptides without Tyr show the background
EPHB1 = EPHB1 (UniProt P54762); experiment: as above
EPHB2 = EPHB2 (UniProt P29323); experiment: as above
FGFR1 = FGFR1 (UniProt P11362); experiment: as above
FGFR3 = FGFR3 (UniProt P22607); experiment: as above
Fer (mouse) = experiment: as above
Fes = Fes (UniProt P07332); experiment: as above
Fyn = Fyn (UniProt P06241); experiment: as above
Hck = Hck (UniProt P08631); experiment: as above
Jak2 = Jak2 (UniProt O60674); experiment: as above
MERTK = MERTK (UniProt Q12866); experiment: as above
c-Abl (mouse) = experiment: as above
c-Src = experiment: as above
Grb2 SH2 = Grb2 SH2 (UniProt P62993); experiment: SH2 binding enrichment of the phosphorylated peptide, bacterial display (enrichment ratio); higher = better substrate or ligand; peptides without Tyr show the background
SHP2-C SH2 = experiment: as above
c-Src SH2 = experiment: as above
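Wherever SH2 binding enrichment of the phosphorylated peptide, bacterial display is given: peptide library displayed on the E. coli surface as eCPX fusions, selected cells deep-sequenced, score is each peptide's frequency after selection divided by its frequency in the input.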
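Wherever phosphorylation enrichment, bacterial display is given: 11-residue human phosphosite peptides and single-mutation variants displayed on the E. coli surface, counted by deep sequencing, each peptide's frequency after selection divided by its frequency in the unselected input library; frequency after pTyr selection over input frequency; kinase dosed for 20-30% of maximal phosphorylation in three min.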

Chain of MERTK (Q12866 whole entry, looked up): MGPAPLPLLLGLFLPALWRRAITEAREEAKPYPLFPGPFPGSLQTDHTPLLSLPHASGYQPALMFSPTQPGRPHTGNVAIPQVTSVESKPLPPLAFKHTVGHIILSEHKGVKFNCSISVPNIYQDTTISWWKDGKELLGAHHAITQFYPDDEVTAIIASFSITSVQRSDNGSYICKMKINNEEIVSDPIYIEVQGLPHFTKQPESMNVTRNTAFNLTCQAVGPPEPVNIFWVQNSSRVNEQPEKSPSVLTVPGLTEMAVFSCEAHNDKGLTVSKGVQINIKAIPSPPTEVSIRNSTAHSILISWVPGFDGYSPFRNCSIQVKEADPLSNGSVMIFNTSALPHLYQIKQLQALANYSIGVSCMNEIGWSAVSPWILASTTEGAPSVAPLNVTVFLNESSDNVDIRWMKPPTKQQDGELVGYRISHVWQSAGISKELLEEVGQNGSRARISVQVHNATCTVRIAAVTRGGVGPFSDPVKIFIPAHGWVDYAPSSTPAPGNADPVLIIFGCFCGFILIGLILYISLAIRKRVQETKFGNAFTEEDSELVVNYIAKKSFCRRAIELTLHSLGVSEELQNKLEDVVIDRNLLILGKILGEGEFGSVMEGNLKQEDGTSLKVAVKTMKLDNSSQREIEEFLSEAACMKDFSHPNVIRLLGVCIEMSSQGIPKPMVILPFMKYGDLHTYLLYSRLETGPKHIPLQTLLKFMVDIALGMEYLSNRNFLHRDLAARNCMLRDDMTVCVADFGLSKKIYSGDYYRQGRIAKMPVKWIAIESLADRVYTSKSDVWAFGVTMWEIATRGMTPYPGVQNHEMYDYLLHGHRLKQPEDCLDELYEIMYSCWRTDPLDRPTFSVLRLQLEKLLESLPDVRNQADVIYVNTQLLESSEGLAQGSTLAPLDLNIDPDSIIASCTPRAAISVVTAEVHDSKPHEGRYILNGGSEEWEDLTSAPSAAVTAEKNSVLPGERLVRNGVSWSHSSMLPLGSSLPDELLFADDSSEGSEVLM
Chain of Fyn (P06241 whole entry, looked up): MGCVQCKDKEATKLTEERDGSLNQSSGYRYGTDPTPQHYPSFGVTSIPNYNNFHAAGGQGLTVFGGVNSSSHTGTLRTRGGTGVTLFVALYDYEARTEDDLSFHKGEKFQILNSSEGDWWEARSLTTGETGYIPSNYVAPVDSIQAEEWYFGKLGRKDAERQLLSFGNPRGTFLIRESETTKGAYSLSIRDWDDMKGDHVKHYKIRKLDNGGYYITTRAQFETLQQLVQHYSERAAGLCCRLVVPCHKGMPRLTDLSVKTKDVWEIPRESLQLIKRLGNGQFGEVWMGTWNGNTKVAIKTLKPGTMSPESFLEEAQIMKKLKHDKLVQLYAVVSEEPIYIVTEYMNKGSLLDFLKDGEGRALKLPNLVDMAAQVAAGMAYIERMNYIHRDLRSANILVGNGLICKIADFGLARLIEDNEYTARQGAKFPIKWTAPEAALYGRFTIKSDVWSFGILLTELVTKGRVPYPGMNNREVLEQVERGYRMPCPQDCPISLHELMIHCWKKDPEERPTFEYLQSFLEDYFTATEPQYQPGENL
Chain of FGFR3 (P22607 whole entry, looked up): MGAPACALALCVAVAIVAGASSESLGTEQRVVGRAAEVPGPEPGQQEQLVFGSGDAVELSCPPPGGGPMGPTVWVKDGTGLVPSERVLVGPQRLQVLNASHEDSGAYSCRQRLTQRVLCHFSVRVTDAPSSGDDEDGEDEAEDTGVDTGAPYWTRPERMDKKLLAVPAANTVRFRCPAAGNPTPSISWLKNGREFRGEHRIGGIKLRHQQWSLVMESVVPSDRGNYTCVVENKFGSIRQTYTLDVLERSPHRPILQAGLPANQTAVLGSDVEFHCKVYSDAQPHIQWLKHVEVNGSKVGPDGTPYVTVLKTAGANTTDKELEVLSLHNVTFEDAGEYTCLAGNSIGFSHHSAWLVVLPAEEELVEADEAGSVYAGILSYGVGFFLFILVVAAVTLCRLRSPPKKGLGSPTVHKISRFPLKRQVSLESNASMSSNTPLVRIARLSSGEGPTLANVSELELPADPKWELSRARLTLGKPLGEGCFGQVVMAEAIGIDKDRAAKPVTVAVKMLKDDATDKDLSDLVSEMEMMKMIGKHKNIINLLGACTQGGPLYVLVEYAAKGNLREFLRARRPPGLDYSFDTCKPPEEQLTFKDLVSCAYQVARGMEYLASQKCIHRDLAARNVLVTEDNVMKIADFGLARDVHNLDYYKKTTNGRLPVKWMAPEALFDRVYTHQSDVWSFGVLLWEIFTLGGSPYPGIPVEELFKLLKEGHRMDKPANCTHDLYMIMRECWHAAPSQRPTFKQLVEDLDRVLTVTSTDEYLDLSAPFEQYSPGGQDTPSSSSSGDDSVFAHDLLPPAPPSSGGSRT
Chain of Fes (P07332 whole entry, looked up): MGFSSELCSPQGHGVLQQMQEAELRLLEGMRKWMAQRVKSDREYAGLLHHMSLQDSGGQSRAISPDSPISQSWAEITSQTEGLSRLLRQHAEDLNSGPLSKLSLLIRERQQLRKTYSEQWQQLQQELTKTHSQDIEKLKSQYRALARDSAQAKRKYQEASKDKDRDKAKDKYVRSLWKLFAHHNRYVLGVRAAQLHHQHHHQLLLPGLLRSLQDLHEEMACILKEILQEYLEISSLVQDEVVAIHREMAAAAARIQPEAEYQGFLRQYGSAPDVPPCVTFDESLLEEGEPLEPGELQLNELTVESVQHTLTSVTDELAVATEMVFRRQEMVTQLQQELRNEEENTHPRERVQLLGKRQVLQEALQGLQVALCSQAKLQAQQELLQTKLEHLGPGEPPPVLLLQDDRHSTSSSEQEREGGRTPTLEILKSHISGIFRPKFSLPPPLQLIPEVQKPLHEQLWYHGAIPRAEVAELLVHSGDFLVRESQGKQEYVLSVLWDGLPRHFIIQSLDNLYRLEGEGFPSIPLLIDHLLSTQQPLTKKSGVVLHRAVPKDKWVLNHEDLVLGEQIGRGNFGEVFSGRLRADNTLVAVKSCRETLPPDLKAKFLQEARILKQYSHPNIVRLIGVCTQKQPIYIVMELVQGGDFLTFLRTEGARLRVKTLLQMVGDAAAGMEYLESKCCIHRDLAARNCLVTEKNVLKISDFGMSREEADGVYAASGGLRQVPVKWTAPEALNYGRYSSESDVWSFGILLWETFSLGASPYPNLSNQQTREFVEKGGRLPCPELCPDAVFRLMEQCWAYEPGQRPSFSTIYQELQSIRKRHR
Chain of Jak2 (O60674 whole entry, looked up): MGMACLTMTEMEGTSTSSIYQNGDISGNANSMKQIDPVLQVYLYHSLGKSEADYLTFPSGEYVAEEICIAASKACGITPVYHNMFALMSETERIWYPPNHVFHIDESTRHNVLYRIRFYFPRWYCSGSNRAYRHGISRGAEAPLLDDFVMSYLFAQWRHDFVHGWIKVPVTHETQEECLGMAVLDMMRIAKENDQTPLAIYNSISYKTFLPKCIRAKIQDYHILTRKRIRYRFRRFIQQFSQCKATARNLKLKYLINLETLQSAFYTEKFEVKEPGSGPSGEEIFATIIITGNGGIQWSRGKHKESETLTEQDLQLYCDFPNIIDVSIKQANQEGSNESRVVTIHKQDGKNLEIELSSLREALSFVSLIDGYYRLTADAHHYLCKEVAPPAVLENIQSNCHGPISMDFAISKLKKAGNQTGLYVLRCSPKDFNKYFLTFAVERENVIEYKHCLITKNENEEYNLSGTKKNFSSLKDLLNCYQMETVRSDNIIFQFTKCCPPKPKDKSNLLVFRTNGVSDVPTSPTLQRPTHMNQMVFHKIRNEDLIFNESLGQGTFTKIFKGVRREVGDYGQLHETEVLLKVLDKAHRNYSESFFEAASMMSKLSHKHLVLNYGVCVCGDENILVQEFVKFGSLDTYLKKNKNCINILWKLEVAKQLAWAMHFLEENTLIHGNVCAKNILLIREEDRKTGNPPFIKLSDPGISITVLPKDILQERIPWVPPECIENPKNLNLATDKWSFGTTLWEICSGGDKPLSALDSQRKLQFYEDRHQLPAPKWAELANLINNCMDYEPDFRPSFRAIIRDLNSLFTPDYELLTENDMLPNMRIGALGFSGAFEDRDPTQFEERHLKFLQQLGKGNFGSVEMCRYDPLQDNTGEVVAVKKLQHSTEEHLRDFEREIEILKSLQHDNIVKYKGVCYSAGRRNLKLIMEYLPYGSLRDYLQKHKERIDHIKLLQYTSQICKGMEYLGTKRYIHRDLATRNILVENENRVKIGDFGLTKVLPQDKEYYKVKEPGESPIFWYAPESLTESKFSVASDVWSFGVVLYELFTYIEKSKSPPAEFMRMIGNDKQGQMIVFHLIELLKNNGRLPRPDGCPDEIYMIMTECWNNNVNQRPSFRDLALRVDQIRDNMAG
Chain of Hck (P08631 whole entry, looked up): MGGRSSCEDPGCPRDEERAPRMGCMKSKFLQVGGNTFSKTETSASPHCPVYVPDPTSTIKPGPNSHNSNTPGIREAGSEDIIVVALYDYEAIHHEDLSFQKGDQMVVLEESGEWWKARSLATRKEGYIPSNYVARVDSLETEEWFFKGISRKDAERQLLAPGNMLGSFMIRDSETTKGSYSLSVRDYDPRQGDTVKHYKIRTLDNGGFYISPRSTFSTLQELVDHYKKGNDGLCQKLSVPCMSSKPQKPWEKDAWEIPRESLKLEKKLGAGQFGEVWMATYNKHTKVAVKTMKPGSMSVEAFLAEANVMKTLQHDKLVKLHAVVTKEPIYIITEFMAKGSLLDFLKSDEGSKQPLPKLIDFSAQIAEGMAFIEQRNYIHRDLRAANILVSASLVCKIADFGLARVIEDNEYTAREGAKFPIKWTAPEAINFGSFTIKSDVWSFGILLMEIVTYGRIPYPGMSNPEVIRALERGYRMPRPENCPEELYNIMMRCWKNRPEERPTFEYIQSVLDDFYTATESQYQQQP

Sequence	SH2 binding enrichment (Grb2 SH2)	SH2 binding enrichment (SHP2-C SH2)	SH2 binding enrichment (c-Src SH2)	phosphorylation enrichment (AncSZ)	phosphorylation enrichment (EPHB1)	phosphorylation enrichment (EPHB2)	phosphorylation enrichment (FGFR1)	phosphorylation enrichment (FGFR3)	phosphorylation enrichment (Fer (mouse))	phosphorylation enrichment (Fes)	phosphorylation enrichment (Fyn)	phosphorylation enrichment (Hck)	phosphorylation enrichment (Jak2)	phosphorylation enrichment (MERTK)	phosphorylation enrichment (c-Abl (mouse))	phosphorylation enrichment (c-Src)
ENEGTYVCIAT [ADAMTSL3_Y1365]	0.74	0.6	0.395	1.46	1.73	1.16	1.29	1.45	1.3	1.38	1.44	1.08	1.1	0.662	0.852	1.62
HNLDYYKMTTN [FGFR3_Y648_K650M]	0.756	1	0.757	1.91	2.13	1.2	17.7	14	0.64	1.04	0.454	0.607	11.2	0.68	0.591	0.894
CPPKVYELMRA [ABL2_Y515]	0.944	0.693	1.53	0.662	8.38	2.41	0.73	0.679	6.41	1.04	1.13	1.81	0.53	3.81	0.585	1.33
VTDGKYAFKPK [GTF2E2_Y137_I133T]	0.783	0.847	0.452	0.491	0.299	0.262	0.411	0.419	0.31	0.64	0.355	0.459	0.521	0.361	0.575	0.361
EDKFMYFEFPQ [PTEN_Y240]	0.745	0.681	0.543	1.7	0.826	0.67	9.1	7.33	0.421	1.27	1.32	1.11	2.05	1.68	0.952	2.53
HLRAGYIIPLQ [GAA_Y822]	1.66	3.2	1.66	0.668	0.398	0.453	0.367	0.534	0.257	0.753	0.417	0.268	0.671	0.355	0.681	0.327
FGSGNYNVFGN [HNRNPA2B1_Y300_D302V_YF]	0.766	0.805	0.682	0.575	0.481	0.476	0.483	0.434	0.338	0.508	0.396	0.423	0.449	0.406	0.328	0.412
EIRTQYEVMAS [GFAP_Y242_A244V]	0.767	0.89	6.97	0.74	0.445	0.476	0.493	0.635	0.49	0.839	0.484	0.49	1.07	0.378	0.615	0.437
EKDSNYCLCRT [ASIC2_Y357]	0.976	0.789	0.778	0.772	0.551	0.634	0.556	0.605	0.442	0.883	0.569	0.513	0.763	0.601	0.573	0.506

The next lines start with results.

SH2 binding enrichment (Grb2 SH2)	SH2 binding enrichment (SHP2-C SH2)	SH2 binding enrichment (c-Src SH2)	Sequence	phosphorylation enrichment (AncSZ)	phosphorylation enrichment (EPHB1)	phosphorylation enrichment (EPHB2)	phosphorylation enrichment (FGFR1)	phosphorylation enrichment (FGFR3)	phosphorylation enrichment (Fer (mouse))	phosphorylation enrichment (Fes)	phosphorylation enrichment (Fyn)	phosphorylation enrichment (Hck)	phosphorylation enrichment (Jak2)	phosphorylation enrichment (MERTK)	phosphorylation enrichment (c-Abl (mouse))	phosphorylation enrichment (c-Src)
0.546	0.546	10.6	HGVSSYDTIIS [LDLR_Y465_V468I]	1.06	0.827	0.819	0.944	0.785	0.712	1.08	0.669	0.738	1.08	0.797	1.63	1.03
0.869	0.798	0.535	SADIAYNFRHG [PAH_Y166_F161S_YF]	0.587	0.447	0.33	0.433	0.469	0.348	0.673	0.416	0.423	0.574	0.374	0.789	0.457
0.999	0.984	0.685	VVTFSYKPAGN [RBL2_Y544_P547A]	0.754	0.418	0.424	0.399	0.705	0.378	0.83	0.395	0.378	0.643	0.367	0.605	0.397
0.811	0.879	0.47	PSTFRYERGSR [INPPL1_Y663_P659S_YF]	0.51	0.368	0.47	0.411	0.429	0.352	0.484	0.408	0.345	0.459	0.366	0.628	0.491
0.964	0.592	0.528	DVFVSYDCGKS [SORL1_Y139_Y141C_YF]	0.969	0.611	0.518	0.485	0.61	0.521	1.04	0.495	0.592	1.05	0.371	0.74	0.449
